Source: paper PMC10374971, “In vivo and in vitro characterizations of melibiose permease (MelB) conformation-dependent nanobodies reveal sugar-binding mechanisms” (The Journal of Biological Chemistry, 2023)

Tests used:
[1] = molecular target: MelBSt/Nb733 complex, formed beforehand (MelBSt 50 μM with Nb733 75 μM, molar ratio 1:1.5) (Salmonella enterica serovar Typhimurium | Lama glama) (UniProt P30878); experiment: ITC; EIIA^Glc (450 μM) in the syringe, MelBSt (50 μM), free or complexed with Nb733 (75 μM), in the sample cell; 20 mM Tris-HCl pH 7.5, 100 mM NaCl, 0.01% DDM, 10% glycerol; 25 °C; one-site independent-binding model
MelBSt/Nb733 complex, formed beforehand (MelBSt 50 μM with Nb733 75 μM, molar ratio 1:1.5) (Salmonella enterica serovar Typhimurium | Lama glama), sequence (P30878 whole entry, looked up, one chain of several): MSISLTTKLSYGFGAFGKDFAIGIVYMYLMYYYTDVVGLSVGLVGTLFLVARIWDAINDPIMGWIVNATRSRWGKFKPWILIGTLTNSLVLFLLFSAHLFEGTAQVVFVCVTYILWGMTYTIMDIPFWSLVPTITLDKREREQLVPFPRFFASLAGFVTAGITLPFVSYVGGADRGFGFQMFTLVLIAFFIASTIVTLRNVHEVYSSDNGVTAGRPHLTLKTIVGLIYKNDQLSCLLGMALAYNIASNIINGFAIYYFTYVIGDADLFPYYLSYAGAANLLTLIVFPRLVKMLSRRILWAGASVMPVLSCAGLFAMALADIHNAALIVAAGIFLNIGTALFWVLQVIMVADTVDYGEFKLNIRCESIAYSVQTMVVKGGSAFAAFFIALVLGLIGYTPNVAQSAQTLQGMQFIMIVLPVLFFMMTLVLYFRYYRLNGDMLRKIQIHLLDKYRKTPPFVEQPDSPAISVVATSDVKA

[2] = molecular target: MelBSt (Salmonella enterica serovar Typhimurium) (UniProt P30878); conditions: cited from earlier work
MelBSt (Salmonella enterica serovar Typhimurium), sequence (P30878 whole entry): as the sequence (P30878 whole entry, looked up, one chain of several) above

[3] = molecular target: T1, Salmonella enterica serovar Typhimurium melibiose permease (MelBSt), wild type (Salmonella enterica serovar Typhimurium, UniProt P30878 6-476); experiment: ITC; EIIA^Glc (450 μM) in the syringe, MelBSt (50 μM), free or complexed with Nb733 (75 μM), in the sample cell; 20 mM Tris-HCl pH 7.5, 100 mM NaCl, 0.01% DDM, 10% glycerol; 25 °C; one-site independent-binding model; conditions: both partners purified
T1 construct: melibiose permease MelB of Salmonella enterica serovar Typhimurium, wild type; Membrane protein in detergent (0.01% DDM) in the ITC; also called WT MelBSt; source: E. coli DW2, plasmid pK95 ΔAH/MelBSt/CHis10
T1 sequence (P30878 6-476): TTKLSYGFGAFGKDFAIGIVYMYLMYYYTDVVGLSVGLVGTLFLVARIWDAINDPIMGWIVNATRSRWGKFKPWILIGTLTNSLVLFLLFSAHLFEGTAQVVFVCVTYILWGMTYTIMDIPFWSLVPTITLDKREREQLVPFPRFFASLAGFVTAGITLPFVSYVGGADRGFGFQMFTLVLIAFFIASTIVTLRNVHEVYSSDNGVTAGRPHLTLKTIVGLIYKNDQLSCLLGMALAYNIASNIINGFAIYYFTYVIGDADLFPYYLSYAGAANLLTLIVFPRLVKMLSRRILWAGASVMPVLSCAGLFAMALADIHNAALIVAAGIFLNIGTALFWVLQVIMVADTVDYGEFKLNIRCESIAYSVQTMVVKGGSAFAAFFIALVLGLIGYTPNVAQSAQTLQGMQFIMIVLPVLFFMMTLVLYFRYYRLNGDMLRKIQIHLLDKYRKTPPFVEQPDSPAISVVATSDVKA

## EIIA^Glc of the glucose-specific phosphoenolpyruvate/sugar phosphotransferase system, unphosphorylated (from UniProt P69783 1-169) (natural protein)
[1]
  Kd: 8.12 mM
  dH: -6.75 kcal/mol
  stoichiometry N: 0.76

## EIIAGlc (from UniProt P69783)
[2]
  Kd: 0.003 mM

B1: EIIA^Glc of the glucose-specific phosphoenolpyruvate/sugar phosphotransferase system, unphosphorylated (natural protein, UniProt P69783 1-169, looked up)
chain: MGLFDKLKSLVSDDKKDTGTIEIIAPLSGEIVNIEDVPDVVFAEKIVGDGIAIKPTGNKMVAPVDGTIGKIFETNHAFSIESDSGVELFVHFGIDTVELKGEGFKRIAEEGQRVKVGDTVIEFDLPLLEEKAKSTLTPVVISNMDEIKELIKLSGSVTVGETPVIRIKK
notes: regulatory enzyme EIIA^Glc of the glucose-specific phosphotransferase system, unphosphorylated; source: E. coli T7 Express, overexpressed, as described (24)
[3]
  Kd: 3.33 mM
  dH: -9.54 kcal/mol
  stoichiometry N: 0.81
